Data: paper PMC6716676, “Chemokine signaling links cell-cycle progression and cilia formation for left–right symmetry breaking” (PLoS Biology, 2019)
Numbering of substitutions follows the chain as printed. In names and notes the source's numbering stands.

B1: Flag-zFoxj1a (zebrafish forkhead box j1a) (natural protein, UniProt F1QDF8 1-458, looked up)
chain: MLSMSSMDPWPEGSVGLEEEVVTAAAQAERLDTSTPLQCNTSLDSDNLDDSLTSLQWLQEFSILNASTGQHTSPSSHSHLMGSDAPSSPLAGDPASIGMPLTPGKPTAASFCRVPMFSALPSLVAHGHCPDEVDYKSNPHIKPPYSYATLICMAMQASKKTKITLSCIYKWITDNFCYFRHADPTWQNSIRHNLSLNKCFIKVPRQKDEPGKGGFWKIDPQYAERLLNGAYKKRRLPPVQINPALQHRLRMNAQATGVISRNLSVSPESQQLLKDFEEATSADQNWDPRLAEATMLSCWISGKGTNKRKQPYNHRTGKTPRRSSSPLLVMDEQEDLSSLRGNFDWDALLDSALNGELSLNEGSPLSPTPQDEELMIRGTHISPQEAPVENHVLMETQRSGDEDFDEETFLATAFLQSPWSEVDESNRSDFLGSSTVSIDQLFDLSFGGDLSSKIETLL
notes: forkhead box j1a (Foxj1a), zebrafish; In the self-association co-IP the second copy carried an HA tag instead of Flag (HA-zFoxj1a); also called Flag-tagged zFoxj1a; wild-type zFoxj1a; source: HEK293T, transfected, in lysate
B2: Flag-zFoxj1a-T102D (natural protein, zebrafish, UniProt F1QDF8 1-458, looked up)
chain: B1 chain with T102D
notes: forkhead box j1a (Foxj1a), zebrafish; In the self-association co-IP the second copy was differently tagged (HA); also called phospho-mimicking mutant of zFoxj1a; T102D mutant; source: HEK293T, transfected, in lysate

Tests used:
[1] = target: zFoxj1a (zebrafish Foxj1a) (UniProt F1QDF8); test: co-IP of Flag- and HA-tagged zFoxj1a; conditions: reference: wild type (both tagged copies); sites T102
[2] = target: the molecule itself; test: native gel or EMSA; whole-cell lysates of HEK293T cells with overexpressed Flag-tagged zFoxj1a or its mutants separated on SDS- and native PAGEs

Molecule	binding against the reference [1]	stoichiometry N [2]
zFoxj1a (zebrafish Foxj1a) (from UniProt F1QDF8) T102A (both tagged copies)	weaker	–
B1	–	2
B2	–	2
